# Variants at the floor of the assay were thinned out.
# Experiments:
# biotinyl-Phe-oxazolone = assay: self-aminoacylation, catalytic enhancement (BFO) (fold over background); higher = more active; k-Seq, kA / k0A0; sequences stand for … in GGGAAUGGAUCCACAUCUACGAAUUC…UUCACUGCAGACUUGACGAAGCUG
# Procedure, shortened: (§1)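 Mutagenized RNA pools (0.43 μM; 21-nt variable region) were treated with 2–1250 μM of each biotinyl-aminoacyl-oxazolone. Conditions were 50 μL HEPES/NaCl/KCl/MgCl2/CaCl2 buffer, 5% acetonitrile, pH 6.9–7.0, room temperature, 90 minutes. Catalytic enhancement, the median kA relative to the uncatalyzed rate, was derived from streptavidin capture, qPCR and Illumina sequencing.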
# biotinyl-Val-oxazolone = assay: self-aminoacylation, catalytic enhancement (BVO) (fold over background); higher = more active; k-Seq, kA / k0A0; sequences stand for … in GGGAAUGGAUCCACAUCUACGAAUUC…UUCACUGCAGACUUGACGAAGCUG
# Procedure, shortened: as §1
# biotinyl-Trp-oxazolone = assay: self-aminoacylation, catalytic enhancement (BWO) (fold over background); higher = more active; k-Seq, kA / k0A0; sequences stand for … in GGGAAUGGAUCCACAUCUACGAAUUC…UUCACUGCAGACUUGACGAAGCUG
# Procedure, shortened: as §1
# biotinyl-Leu-oxazolone = assay: self-aminoacylation, catalytic enhancement (BLO) (fold over background); higher = more active; k-Seq, kA / k0A0; sequences stand for … in GGGAAUGGAUCCACAUCUACGAAUUC…UUCACUGCAGACUUGACGAAGCUG
# Procedure, shortened: as §1
# biotinyl-Met-oxazolone = assay: self-aminoacylation, catalytic enhancement (BMO) (fold over background); higher = more active; k-Seq, kA / k0A0; sequences stand for … in GGGAAUGGAUCCACAUCUACGAAUUC…UUCACUGCAGACUUGACGAAGCUG
# Procedure, shortened: as §1
# biotinyl-Ile-oxazolone = assay: self-aminoacylation, catalytic enhancement (BIO) (fold over background); higher = more active; k-Seq, kA / k0A0; sequences stand for … in GGGAAUGGAUCCACAUCUACGAAUUC…UUCACUGCAGACUUGACGAAGCUG
# Procedure, shortened: as §1
Sequence,self-aminoacylation (biotinyl-Phe-oxazolone),self-aminoacylation (biotinyl-Val-oxazolone),self-aminoacylation (biotinyl-Trp-oxazolone),self-aminoacylation (biotinyl-Leu-oxazolone),self-aminoacylation (biotinyl-Met-oxazolone),self-aminoacylation (biotinyl-Ile-oxazolone)
AUUAGCCUGGUCAUCGAGGGA [Fam2.1 aminoacylation ribozyme variant],2.28,2.4,3.19,2.52,1.49,2.08
AAUAACCUAGGUCAUCGGGUG [Fam2.2 aminoacylation ribozyme variant],22.8,3.3,5.23,4.57,4.25,3.18
AUUACCAUUGUCAUCGAGUGA [Fam2.1 aminoacylation ribozyme variant],40.4,4.25,10.4,8.46,7.41,4.32
AUUACCAUGGUCACCGAGUGA [Fam2.1 aminoacylation ribozyme variant],49.9,3.41,8.6,9.1,8.17,3.34
AUCCACCUAGGUCAUCGGGUA [Fam2.2 aminoacylation ribozyme variant],275,18.1,26.5,53.2,39.4,20.2
AUUCACCUAGGUCAUCAAGUG [Fam2.2 aminoacylation ribozyme variant],1.21,0.711,0.347,0.756,0.662,0.747
AUUACUCUGGUCAUCGAAUGA [Fam2.1 aminoacylation ribozyme variant],0.918,1.09,0.832,1.3,1.45,1.19
AAGUUUGCUAAGAGUCGCAAA [Fam3.1 aminoacylation ribozyme variant],2.02,0.889,1.12,0.88,1.25,1.01
AUUCACCUACGUCAUCGAGUG [Fam2.2 aminoacylation ribozyme variant],12.5,2.71,3.77,4.08,4.25,2.45
AUUCACCUGGGUGAUCGGGUG [Fam2.2 aminoacylation ribozyme variant],24.1,4.45,6.7,4.89,4.39,3.9
AUGACCCUGGUCAACGAGUGA [Fam2.1 aminoacylation ribozyme variant],32.5,3.52,6.86,6.02,5.77,3.48
AAGUUUGCUAAUUGUCGCAAG [Fam3.1 aminoacylation ribozyme variant],1.37,0.846,1.06,0.764,0.788,0.834
AAGUUUGAUAAUAGUCCCAAG [Fam3.1 aminoacylation ribozyme variant],0.838,0.515,0.489,0.423,0.47,0.613
ACUACCCUGGUCAUCGACUGA [Fam2.1 aminoacylation ribozyme variant],3.44,0.854,0.51,0.769,1.09,0.918
CUUACCCUGUUCAUCGAGUGA [Fam2.1 aminoacylation ribozyme variant],7.83,2.86,6.94,4.33,4.32,2.29
UCACACUUCAAGCAAGCGGUC [Fam1B.1 aminoacylation ribozyme variant],0.807,1.06,0.746,0.991,1.02,0.965
GAGUAUGCUAAUAGUCGCAAG [Fam3.1 aminoacylation ribozyme variant],6.5,1.61,4.13,1.45,1.49,1.91
AUUCACCUAGGUCAUGGGGUU [Fam2.2 aminoacylation ribozyme variant],0.983,1.58,1.51,1.52,1.68,1.5
AUUUCCCUGGUCAUCUAGUGA [Fam2.1 aminoacylation ribozyme variant],76.6,4.67,11.7,9.47,8.93,4.45
AUUACCGUGGUAAUCGAGUGA [Fam2.1 aminoacylation ribozyme variant],43.2,4.18,9.95,9.2,8.54,3.63
CCACACUUCCAGCAAUCGUUC [Fam1B.1 aminoacylation ribozyme variant],1.22,1.05,0.75,0.64,0.642,1.09

# — the supplement of paper PMC9233669
